Reference: paper PMC6005658 (2017)
Read-outs that look alike come from different tables or passages of the source. *1 amine or outer side, *2 acyl side, *3 side chain or, on linkers, in order; H or OH if unused. Bridges are numbered along the chain shown (N, C = ends). [ ]: non-standard residue; d: D form. Tyr(All) = C=CCOc1ccc(C[C@H](N[*:1])C(=O)[*:2])cc1

T1: arodyn analog 6 (SMILES …)
T1 chain: Ac-F[Tyr(All)]FRLRRIRPK-NH2

T2: arodyn analog 5
T2 chain: Ac-[Tyr(All)]FFRLRRIRPK-NH2

T3: arodyn analog 3 (staple 1-2; also: RCM olefin trans)
T3 chain: Ac-[Tyr(All)][Tyr(All)]FRLRRIRPK-NH2

T4: arodyn analog 7 (SMILES …)
T4 chain: Ac-FF[Tyr(All)]RLRRIRPK-NH2

T5: arodyn analog 4 (staple 2-3; also: RCM olefin trans)
T5 chain: Ac-F[Tyr(All)][Tyr(All)]RLRRIRPK-NH2


Columns and labels:
Assay in all cases: radioligand binding
arodyn analog 6 [1] = target: T1, arodyn analog 6
arodyn analog 5 [2] = target: T2, arodyn analog 5
arodyn analog 3 [3] = target: T3, arodyn analog 3
arodyn analog 7 [4] = target: T4, arodyn analog 7
arodyn analog 4 [5] = target: T5, arodyn analog 4
arodyn analog 6 [6] = target: T1, arodyn analog 6
arodyn analog 5 [7] = target: T2, arodyn analog 5
arodyn analog 3 [8] = target: T3, arodyn analog 3
arodyn analog 7 [9] = target: T4, arodyn analog 7
arodyn analog 4 [10] = target: T5, arodyn analog 4

Ki (arodyn analog 6 [1]) [nM] | Ki (arodyn analog 5 [2]) [nM] | Ki (arodyn analog 3 [3]) [nM] | Ki (arodyn analog 7 [4]) [nM] | Ki (arodyn analog 4 [5]) [nM] | Ki (arodyn analog 6 [6]) [nM] | Ki (arodyn analog 5 [7]) [nM] | Ki (arodyn analog 3 [8]) [nM] | Ki (arodyn analog 7 [9]) [nM] | Ki (arodyn analog 4 [10]) [nM] | Binder
1460 | 1170 | 1920 | 1430 | 903 | – | – | – | – | – | μ opioid receptor (protein) MDSSTGPGNTSDCSDPLAQASCSPAPGSWLNLSHVDGNQSDPCGLNRTGLGGNDSLCPQTGSPSMVTAITIMALYSIVCVVGLFGNFLVMYVIVRYTKMKTATNIYIFNLALADALATSTLPFQSVNYLMGTWPFGTILCKIVISIDYYNMFTSIFTLCTMSVDRYIAVCHPVKALDFRTPRNAKIVNVCNWILSSAIGLPVMFMATTKYRQGSIDCTLTFSHPTWYWENLLKICVFIFAFIMPVLIITVCYGLMILRLKSVRMLSGSKEKDRNLRRITRMVLVVVAVFIVCWTPIHIYVIIKALITIPETTFQTVSWHFCIALGYTNSCLNPVLYAFLDENFKRCFREFCIPTSSTIEQQNSTRVRQNTREHPSTANTVDRTNHQLENLEAETAPLP
– | – | – | – | – | 66.3 | 83.3 | 71.7 | 134 | 55.4 | κ opioid receptor (protein) MESPIQIFRGEPGPTCAPSACLLPNSSSWFPNWAESDSNGSVGSEDQQLEPAHISPAIPVIITAVYSVVFVVGLVGNSLVMFVIIRYTKMKTATNIYIFNLALADALVTTTMPFQSAVYLMNSWPFGDVLCKIVISIDYYNMFTSIFTLTMMSVDRYIAVCHPVKALDFRTPLKAKIINICIWLLASSVGISAIVLGGTKVREDVDVIECSLQFPDDEYSWWDLFMKICVFVFAFVIPVLIIIVCYTLMILRLKSVRLLSGSREKDRNLRRITKLVLVVVAVFIICWTPIHIFILVEALGSTSHSTAVLSSYYFCIALGYTNSSLNPVLYAFLDENFKRCFRDFCFPIKMRMERQSTNRVRNTVQDPASMRDVGGMNKPV
